Data: paper PMC9625839

Biological target: high-affinity mouse IL2 receptor on CTLL-2 cells (mouse (endogenous in CTLL-2))

For “aldesleukin (FDA-approved recombinant human IL2) (from UniProt P60568 21-133) (ligand)”, the CTLL-2 cell proliferation (WST-1 absorbance), EC50 was 0.6 ng/mL.
